Assay [1] addresses T1, mouse ACVR1 extracellular domain expressed with a C-terminal myc-myc-hexahistidine tag (mouse).
T1 construct: also called mACVR1-MMH; mACVR1-mmh
T1 chain: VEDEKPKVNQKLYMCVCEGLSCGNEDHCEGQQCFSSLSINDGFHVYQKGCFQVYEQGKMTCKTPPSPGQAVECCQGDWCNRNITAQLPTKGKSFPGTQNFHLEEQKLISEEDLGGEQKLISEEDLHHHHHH
The assay can be described thus: SPR (Biacore), mAb captured, 37 C. As for the experimental part:
(§1) Equilibrium dissociation constants (KD) for ACVR1 binding to purified anti-ACVR1 monoclonal antibodies were determined using a real-time surface plasmon resonance biosensor (SPR-Biacore), Biacore 4000. All binding studies were performed in 10 mM HEPES, 150 mM NaCl, 3 mM EDTA, and 0.05% v/v surfactant Tween-20, pH 7.4 (HBS-ET) running buffer at 25° C. and 37° C. The Biacore CM5 sensor surface was first derivatized by amine coupling with a monoclonal mouse anti-human Fc antibody (GE, #BR-1008-39 or REGN2567) to capture anti-ACVR1 monoclonal antibodies. […] ACVR1 reagents were then injected over anti-human Fc captured anti-ACVR1 monoclonal antibody surface for 2.5-3 minutes at a flow rate of 30 μL/minute, while the dissociation of monoclonal antibody bound ACVR1 reagent was monitored for 10-15 minutes in HBS-ET running buffer. Kinetic association rate constant (kₐ) and dissociation rate constant (kd) were determined by fitting the real-time sensorgrams to a 1:1 binding model using Scrubber 2.0c curve-fitting software. Binding dissociation equilibrium constants (KD) and dissociative half-lives (t½) were calculated from the kinetic rate constants as: […]

In assay [2] the target is T2, human ACVR1 extracellular domain expressed with a C-terminal mouse IgG2a Fc tag (human).
T2 construct: also called hACVR1-mFc
T2 chain: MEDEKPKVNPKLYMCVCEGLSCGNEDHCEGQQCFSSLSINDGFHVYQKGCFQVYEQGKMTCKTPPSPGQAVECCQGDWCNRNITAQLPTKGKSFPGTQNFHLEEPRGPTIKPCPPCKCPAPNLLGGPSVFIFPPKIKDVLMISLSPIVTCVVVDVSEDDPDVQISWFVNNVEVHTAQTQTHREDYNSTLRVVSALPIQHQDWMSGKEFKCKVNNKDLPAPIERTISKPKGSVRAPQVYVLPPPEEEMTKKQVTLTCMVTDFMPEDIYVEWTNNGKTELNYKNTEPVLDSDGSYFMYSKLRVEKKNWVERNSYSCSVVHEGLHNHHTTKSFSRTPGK
The assay can be described thus: SPR (Biacore), mAb captured, 37 C. As for the experimental part: as §1

The target of assay [3] is T3, human ACVR1 extracellular domain expressed with a C-terminal myc-myc-hexahistidine tag (human).
T3 construct: also called hACVR1-MMH
T3 chain: T1 chain with V1M, Q10P
The assay can be described thus: SPR (Biacore), mAb captured, 37 C. On the procedure: as §1

Assay [4] deals with T1, mouse ACVR1 extracellular domain …. The assay can be described thus: SPR (Biacore), mAb captured, 25 C. On the procedure:
as §1

For assay [5], the target named is T2, human ACVR1 extracellular domain …. Kind of assay: SPR (Biacore), mAb captured, 25 C. As for the experimental part: as §1
Assay [6] addresses T3, human ACVR1 extracellular domain …. Kind of assay: SPR (Biacore), mAb captured, 25 C. As for the experimental part:
as §1

Assay [7] concerns the target T4, full length human ACVR1 (R206H) on HEK293/BRE-luc/hACVR1-R206H-clone H2 cells (human, UniProt Q04771 21-509).
T4 construct: also called HEK293/hACVR1-R206H
T4 sequence: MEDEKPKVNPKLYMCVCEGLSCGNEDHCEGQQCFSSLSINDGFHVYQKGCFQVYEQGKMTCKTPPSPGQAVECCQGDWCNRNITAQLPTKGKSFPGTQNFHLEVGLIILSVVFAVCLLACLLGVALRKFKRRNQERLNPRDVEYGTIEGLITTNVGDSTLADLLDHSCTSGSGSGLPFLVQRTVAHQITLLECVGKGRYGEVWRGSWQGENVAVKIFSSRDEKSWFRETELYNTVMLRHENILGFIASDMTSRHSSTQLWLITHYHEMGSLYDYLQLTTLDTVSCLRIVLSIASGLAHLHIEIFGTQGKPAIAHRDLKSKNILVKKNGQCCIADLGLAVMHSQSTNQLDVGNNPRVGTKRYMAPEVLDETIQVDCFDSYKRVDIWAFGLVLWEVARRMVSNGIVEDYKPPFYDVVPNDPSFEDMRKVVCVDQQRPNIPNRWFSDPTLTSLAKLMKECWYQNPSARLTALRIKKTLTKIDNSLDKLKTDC
The assay can be described thus: flow cytometry, 70 nM antibody, HEK293/hACVR1-R206H cells. As for the experimental part:
Cells were fixed using BD CytoFix™ (Becton Dickinson, #554655) and analyzed on either Hypercyt® or IQue® Flow Cytometers (Intellicyt®). Unstained and secondary antibody alone controls were also tested for all cell lines. The results were analyzed using ForeCyt® (IntelliCyt®) software to determine the geometric means of fluorescence for viable cells and binding ratios were calculated by normalizing the geometric mean value of the test condition by the geometric mean value of the corresponding unstained cells.

Assay [8] deals with T4, full length human ACVR1 (R206H) on …. Kind of assay: cell-based or functional assay.

Changes are numbered by the printed parent chain.

B1: mAb29256 (antibody, human IgG4 S228P, kappa, V domains shown)
VH: EVQLVESGGNLVQPGGSLRLSCAASGFTFSNYAMSWVRQAPGKGLEWVSGITGNGVNTYYSVSVKGRFTISRDNSKNTLFLEMNSLRAEDTAIYYCVKERGHSWFGDWFDPWGQGTLVTVSS
VL: DIQMTQSPSSLSASVGDRVTITCRSSQSVISYLNWYQQKPGKAPKLLIFGASSLISGVPSRFSGSGSGTDFTLTIVSLQPEDFAVYFCQQNYLPPLTFGGGTKVEIKR
notes: also called mAb29256P
Regarding B1, the “900 nM or 100 nM Ag Bound (RU)” value in assay [1] is 0 RU; in assay [3] it was 0 RU; in assay [4], -3 RU; in assay [6], -2 RU. Moreover, the figures for the “100 nM Ag Bound (RU)” value in assay [2] and in assay [5] were 3 RU and -1 RU, respectively. The “MFI - Normalized to Unstained Control” value in assay [7] worked out at 3 fold.

B2: mAb29233 (antibody, human IgG4 S228P, kappa, V domains shown)
VH: QVQLVQSGAEVKKPGASVKVSCKASGYTFTSYGISWVRQAPGQGLEWMGWISAYNGNTIYAQKFQGRVTMTTDTSTSTAYMELRSLRSDDTAVYYCARDINWYFDLWGRGTLVTVSS
VL: DIQMTQSPSSLSASVGDRVTITCRASQGIRNDLGWFQQKPGKAPKRLIYAASSLQSGVPSRFSGSGSGTEFTLTISSLQPEDFATYYCLQHNSYPWTFGQGTKVEIKR
Turning to B2, the “900 nM or 100 nM Ag Bound (RU)” value in assay [1] is 1 RU; in assay [3], 3 RU; in assay [4], 1 RU; in assay [6], 1 RU. Besides, the “100 nM Ag Bound (RU)” value in assay [2] amounted to 3 RU; in assay [5], 2 RU. For the same molecule, the binding result in assay [4] is “no binding (tested: 900 nM or 100 nM)”; in assay [5] it was “no binding (tested: 100 nM)”; in assay [6], “no binding (tested: 900 nM or 100 nM)”. Also, the “MFI - Normalized to Unstained Control” value in assay [7] turned out to be 5 fold.

B3: mAb29261 (antibody, human IgG4 S228P, kappa, V domains shown)
VH: B1 VH with V56I, L79V, E82Q
VL: B2 VL with F36Y
Turning to B3, the “900 nM or 100 nM Ag Bound (RU)” value in assay [1] was 2 RU; in assay [3], 5 RU; in assay [4], -1 RU; in assay [6], 0 RU. Besides, the binding result in assay [3] is listed as “no binding (tested: 900 nM or 100 nM)”. The “MFI - Normalized to Unstained Control” value in assay [7] was determined as 2 fold.

B4: mAb27247 (antibody, human IgG4 S228P, kappa, V domains shown)
VH: EIQLVESGGDLVQPGGSLKLSCAASGFTFSDSAMHWVRQASGKGLEWVGRIRNKANTYATSYAASVKGRFTVSTDDSKTTAYLQMRYLKIEDTAIYYCTSDQFDYWGQGTLVTVSS
VL: DVVMTQSPLSLSATLGQPASISCRSSQSLVYSDGITYLTWFQQRPGQSPTRLIYQVSNRDSGVPDRFNGSGSGTDFTLNISRVEAEDVGFYYCMEGTHWPWTFGQGTKVELKR
notes: also called H4H27247
On to B4, for which the “900 nM or 100 nM Ag Bound (RU)” value in assay [1] amounted to 4 RU. In addition, in assay [2], the “100 nM Ag Bound (RU)” value was 219 RU, binding was characterised by a dissociation constant (Kd) of 1.39 nM, the off-rate (koff) amounted to 0.000515 s⁻¹ and the on-rate (kon) amounted to 371000 M⁻¹ s⁻¹. In addition, the t½ in assay [2] came out at 22 min. Besides, in assay [3], the “900 nM or 100 nM Ag Bound (RU)” value is 67 RU, binding was characterised by a dissociation constant (Kd) of 19.3 nM, the koff came to 0.00404 s⁻¹ and the kon was 209000 M⁻¹ s⁻¹. In assay [3], the t½ is 2.9 min. Besides, in assay [4], the “900 nM or 100 nM Ag Bound (RU)” value stood at 3 RU and the binding result is “no binding (tested: 900 nM or 100 nM)”. For the same molecule, in assay [5], the “100 nM Ag Bound (RU)” value turned out to be 186 RU, the Kd is 0.787 nM, the koff came to 0.00018 s⁻¹ and the association rate constant (kon) was 229000 M⁻¹ s⁻¹. The molecule further showed a t½ in assay [5] of 64 min. In assay [6], the “900 nM or 100 nM Ag Bound (RU)” value turned out to be 52 RU, binding was characterised by a dissociation constant (Kd) of 10.4 nM, the koff was found to be 0.00119 s⁻¹ and the kon was found to be 115000 M⁻¹ s⁻¹. The molecule further gave a t½ in assay [6] of 10 min. Also, the “MFI - Normalized to Unstained Control” value in assay [7] was found to be 1660 fold.

B5: mAb29266 (antibody, human IgG4 S228P, kappa, V domains shown)
VH: QVQLVESGGGVVQPGRSLRLSCEVSGFTFSNYGMHWVRQAPGKGLEWVAVVSYDGSNKYYTDSVKGRFTISRDNSKNTLSLQMNSLRAEDTAVYYCAKDRGITGTSGGVFDIWGQGTMVTVSS
VL: AIRMTQSPSSFSATTGDRVTITCRASQGISSHLAWYQQKPGKAPKFLIYVASTLQSGVPSRFSGSGSGTDFTLTISSLQSEDFATYYCQQYYSYPPTFGQGTKVEIKR
In the case of B5, in assay [2], the “100 nM Ag Bound (RU)” value came to 205 RU; the affinity, expressed as Kd, was 3.88 nM; the koff came to 0.000911 s⁻¹; the kon came out at 235000 M⁻¹ s⁻¹. In assay [2], this molecule showed a t½ of 13 min. Moreover, in assay [3], the “900 nM or 100 nM Ag Bound (RU)” value turned out to be 38 RU, binding was characterised by a dissociation constant (Kd) of 191 nM, the koff amounted to 0.0299 s⁻¹ and the kon is 156000 M⁻¹ s⁻¹. Further, the t½ in assay [3] was 0.39 min. In assay [5], the “100 nM Ag Bound (RU)” value was determined as 178 RU, binding was characterised by a dissociation constant (Kd) of 5.43 nM, the koff amounted to 0.00062 s⁻¹ and the kon came out at 114000 M⁻¹ s⁻¹. Further, the t½ in assay [5] worked out at 19 min. Also, in assay [6], the “900 nM or 100 nM Ag Bound (RU)” value was 44 RU, the equilibrium dissociation constant (Kd) was determined as 109 nM, the koff worked out at 0.00679 s⁻¹ and the association rate constant (kon) worked out at 62100 M⁻¹ s⁻¹. For the same molecule, the t½ in assay [6] was found to be 1.7 min. In addition, in assay [7], the “MFI - Normalized to Unstained Control” value came to 1640 fold. In assay [8], the “% Inhibition, BRE-luc reporter, 2 nM hBMP7” value came to 93% and the “IC50 [M], BRE-luc reporter, 2 nM hBMP7” value is 1.9e-09 M.

(Values after patent US20210253716A1 (Regeneron, published 2021).)
